Data reported in publication PMC3411106, “Structural analysis of the human SYCE2–TEX12 complex provides molecular insights into synaptonemal complex assembly” (Open Biology, 2012).

T1: MBP–SYCE2 (1–218) (human, UniProt Q6PIF2 1-218)
T1 construct: Tetramer by SEC–MALS; also called full-length SYCE2; source: E. coli Rosetta 2 (DE3); co-expressed (pRSFDuet-1), in clarified lysate for the pull-down; individually expressed, purified on amylose resin for SEC–MALS; not shown: MBP, N-terminal, kept
T1 sequence (looked up): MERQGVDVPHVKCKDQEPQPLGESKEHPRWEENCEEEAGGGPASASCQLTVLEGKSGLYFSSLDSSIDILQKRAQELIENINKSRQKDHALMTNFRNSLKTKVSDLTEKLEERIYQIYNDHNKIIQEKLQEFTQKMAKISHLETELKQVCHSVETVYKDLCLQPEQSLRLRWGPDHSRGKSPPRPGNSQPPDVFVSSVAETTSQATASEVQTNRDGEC

T2: MBP–SYCE2_(57–88) (human, UniProt Q6PIF2 57-88)
T2 construct: human SYCE2, residues 57–88 (α1 region); Monomer by SEC–MALS; also called α1 region of SYCE2; source: E. coli Rosetta 2 (DE3); co-expressed (pRSFDuet-1), in clarified lysate for the pull-down; individually expressed, purified on amylose resin for SEC–MALS; not shown: MBP, N-terminal, kept
T2 chain (looked up): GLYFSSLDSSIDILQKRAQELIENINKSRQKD

B1: TEX12 (1–123), tag cleaved (natural protein, human, UniProt Q9BXU0 1-123, looked up)
chain: MMANHLVKPDNRNCKRPRELESPVPDSPQLSSLGKSDSSFSEISGLFYKDEALEKDLNDVSKEINLMLSTYAKLLSERAAVDASYIDEIDELFKEANAIENFLIQKREFLRQRFTVIANTLHR
notes: not shown: His-tag, N-terminal, cleaved
B2: TEX12_(49–123), tag cleaved (domain or fragment, human, UniProt Q9BXU0 49-123, looked up)
chain: KDEALEKDLNDVSKEINLMLSTYAKLLSERAAVDASYIDEIDELFKEANAIENFLIQKREFLRQRFTVIANTLHR
notes: as for B1
B3: SYCE2_(57–165), tag cleaved (domain or fragment, human, UniProt Q6PIF2 57-165, looked up)
chain: GLYFSSLDSSIDILQKRAQELIENINKSRQKDHALMTNFRNSLKTKVSDLTEKLEERIYQIYNDHNKIIQEKLQEFTQKMAKISHLETELKQVCHSVETVYKDLCLQPE
notes: also called central conserved region of SYCE2; source: E. coli Rosetta 2 (DE3), co-expressed with TEX12 constructs, co-purified (Ni–NTA, amylose, TEV cleavage, Resource Q); not shown: MBP, N-terminal, cleaved
B4: MBP–TEX12_(1–123) (natural protein, human, UniProt Q9BXU0 1-123, looked up)
chain: B1 chain
notes: Homodimer by SEC–MALS; source: E. coli Rosetta 2 (DE3), individually expressed, purified on amylose resin; not shown: MBP, N-terminal, kept
B5: MBP-TEX12_(24–123) (domain or fragment, human, UniProt Q9BXU0 24-123, looked up)
chain: VPDSPQLSSLGKSDSSFSEISGLFYKDEALEKDLNDVSKEINLMLSTYAKLLSERAAVDASYIDEIDELFKEANAIENFLIQKREFLRQRFTVIANTLHR
notes: Dimer by SEC–MALS; source: E. coli Rosetta 2 (DE3), individually expressed, purified on amylose resin; not shown: MBP, N-terminal, kept
B6: MBP-TEX12_(49–123) (domain or fragment, human, UniProt Q9BXU0 49-123, looked up)
chain: B2 chain
notes: as for B5
B7: His–TEX12 (1–123) (natural protein, human, UniProt Q9BXU0 1-123, looked up)
chain: B1 chain
notes: source: E. coli Rosetta 2 (DE3), co-expressed (pRSFDuet-1), in clarified lysate; not shown: His-tag, N-terminal, kept

Legend:
[1] = molecular target: His–SYCE2 (1–218) (human) (UniProt Q6PIF2); assay: SEC-MALS; 100 µl at 1–5 mg ml^−1 on Superdex 200 10/300 GL; 20 mM Tris pH 8.0, 150 mM KCl, 2 mM DTT; purified complexes or purified fusion proteins
[2] = molecular target: T1, MBP–SYCE2 (1–218); assay: as above
[3] = molecular target: B3; assay: SDS–PAGE band densitometry of the purified complex; Coomassie-stained SDS–PAGE of the co-purified, tag-cleaved complex; densitometry with IMAGEJ; conditions: both partners purified
[4] = molecular target: the molecule itself; assay: AUC; sedimentation velocity of co-purified, tag-cleaved complexes; SYCE2_(57–165)–TEX12 at 57 µM, SYCE2_(57–165)–TEX12_(49–123) at 289 µM; 20 mM Tris pH 8.0, 145 mM KCl, 2 mM DTT; 30 000 r.p.m., 20°C; c(S) fit
[5] = molecular target: the molecule itself; assay: SEC-MALS; 100 µl at 1–5 mg ml^−1 on Superdex 200 10/300 GL; 20 mM Tris pH 8.0, 150 mM KCl, 2 mM DTT; purified complexes or purified fusion proteins
[6] = molecular target: T1, MBP–SYCE2 (1–218); assay: pull-down; amylose pull-down after co-expression in bacteria of MBP-fusion SYCE2 constructs (bait) with His-tagged TEX12 or SYCE2 constructs; lysis in 20 mM Tris pH 8.0, 500 mM KCl, 2 mM DTT; 1 h at 4°C; maltose elution; Coomassie-stained SDS–PAGE; conditions: partners not purified
[7] = molecular target: T2, MBP–SYCE2_(57–88); assay: as above; conditions: partners not purified

Question: How did the stoichiometry N [1] turn out when “His–SYCE2 (1–218) (from UniProt Q6PIF2 1-218) (natural protein)” was run?
Answer: 4

Question: With “MBP–SYCE2 (1–218) (from UniProt Q6PIF2 1-218) (natural protein)” as the molecule, how does the stoichiometry N [2] read?
Answer: 4

Question: With B1 as the molecule, how does the “stoichiometry N” value [3] read?
Answer: 1

Question: For B2, which “stoichiometry N” value [3] is on record?
Answer: 1

Question: Does B3 bind [4]?
Answer: binds

Question: How did the “stoichiometry N” value [5] turn out when B4 was run?
Answer: 2

Question: How did the “stoichiometry N” value [5] turn out when B5 was run?
Answer: 2

Question: B6 was tested. Which “stoichiometry N” value [5] did it give?
Answer: 2

Question: For B7, which “integrated intensity of the TEX12 band relative to 57–165” value [6] is on record?
Answer: 62%

Question: And the “integrated intensity of the TEX12 band relative to 57–165” value [7]?
Answer: 96%
